Results reported in publication PMC9482650, “Quantitative fragmentomics allow affinity mapping of interactomes” (Nature Communications, 2022).

What was measured:
Test in all cases: holdup assay
Parameters in all cases: key: below the threshold = too weak to quantify, mostly under pKd 3.1 to 4
Settings in all cases: plain residues with an end cap or a label only (N-terminal biotin on a linker: ado-ado)
LNX1_2, Q8TBB1 = target: LNX1_2, Q8TBB1
NHERF2_2, Q15599 = target: NHERF2_2, Q15599
HTRA2, O43464 = target: HTRA2, O43464
TJP1_3, Q07157 = target: TJP1_3, Q07157
GRIP2_5, Q9C0E4 = target: GRIP2_5, Q9C0E4
NHERF3_1, Q5T2W1 = target: T1, NHERF3_1, Q5T2W1
T1 sequence (Q5T2W1 4-100, limits assumed, looked up): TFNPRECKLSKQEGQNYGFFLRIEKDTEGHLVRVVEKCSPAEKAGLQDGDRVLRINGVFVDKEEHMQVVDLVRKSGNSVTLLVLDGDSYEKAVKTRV

GRIP2_4, Q9C0E4 = target: GRIP2_4, Q9C0E4
PARD3B_1, Q8TEW8 = target: T2, PARD3B_1, Q8TEW8
T2 sequence (Q8TEW8 196-299, limits assumed, looked up): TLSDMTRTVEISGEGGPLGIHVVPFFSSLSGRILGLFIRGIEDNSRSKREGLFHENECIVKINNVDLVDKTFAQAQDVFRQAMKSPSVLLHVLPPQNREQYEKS

MAGI1_1, Q96QZ7 = target: MAGI1_1, Q96QZ7
APBA1_2, Q02410 = target: T3, APBA1_2, Q02410
T3 sequence (Q02410 742-832, limits assumed, looked up): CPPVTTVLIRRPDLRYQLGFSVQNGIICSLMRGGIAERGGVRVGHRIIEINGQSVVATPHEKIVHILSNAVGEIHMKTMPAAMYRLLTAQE

Inadl_2, Q8NI35 = target: Inadl_2, Q8NI35
LNX1_1, Q8TBB1 = target: LNX1_1, Q8TBB1
MPDZ_10, O75970 = target: T4, MPDZ_10, O75970
T4 sequence (O75970 1624-1722, limits assumed, looked up): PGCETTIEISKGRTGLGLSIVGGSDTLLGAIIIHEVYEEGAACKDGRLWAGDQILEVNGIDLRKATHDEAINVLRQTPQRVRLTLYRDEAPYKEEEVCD

FRMPD2_3, Q68DX3 = target: FRMPD2_3, Q68DX3
PTPN13_1, Q12923 = target: T5, PTPN13_1, Q12923
T5 sequence (Q12923 1088-1188, limits assumed, looked up): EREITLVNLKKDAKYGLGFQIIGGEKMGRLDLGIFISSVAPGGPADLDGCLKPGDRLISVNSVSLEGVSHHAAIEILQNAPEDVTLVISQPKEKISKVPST

LAP2, Q96RT1 = target: LAP2, Q96RT1
PDZRN3_1, Q9UPQ7 = target: T6, PDZRN3_1, Q9UPQ7
T6 sequence (Q9UPQ7 244-349, limits assumed, looked up): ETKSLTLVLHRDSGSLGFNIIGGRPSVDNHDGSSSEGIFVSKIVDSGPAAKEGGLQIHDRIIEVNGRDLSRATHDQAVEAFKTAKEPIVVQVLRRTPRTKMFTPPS

DLG3_3, Q92796 = target: T7, DLG3_3, Q92796
T7 sequence (Q92796 374-475, limits assumed, looked up): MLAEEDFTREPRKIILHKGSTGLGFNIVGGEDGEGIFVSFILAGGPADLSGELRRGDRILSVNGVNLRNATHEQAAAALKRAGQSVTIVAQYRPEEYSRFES

PARD3_3, Q8TEW0 = target: PARD3_3, Q8TEW0
APBA2_1, Q99767 = target: T8, APBA2_1, Q99767
T8 sequence (Q99767 563-664, limits assumed, looked up): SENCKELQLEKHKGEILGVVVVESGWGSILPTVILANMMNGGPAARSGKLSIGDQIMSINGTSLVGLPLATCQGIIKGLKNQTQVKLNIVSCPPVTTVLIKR

GRIP2_3, Q9C0E4 = target: GRIP2_3, Q9C0E4
FRMPD2_2, Q68DX3 = target: FRMPD2_2, Q68DX3
GRIP2_6, Q9C0E4 = target: GRIP2_6, Q9C0E4
SNTG2, Q9NY99 = target: T9, SNTG2, Q9NY99
T9 sequence (Q9NY99 68-166, limits assumed, looked up): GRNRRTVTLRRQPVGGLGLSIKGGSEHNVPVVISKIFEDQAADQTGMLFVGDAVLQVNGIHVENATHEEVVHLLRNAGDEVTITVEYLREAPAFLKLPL

CASK, O14936 = target: CASK, O14936
GORASP1, Q9BQQ3 = target: GORASP1, Q9BQQ3
TIAM2, Q8IVF5 = target: T10, TIAM2, Q8IVF5
T10 sequence (Q8IVF5 885-986, limits assumed, looked up): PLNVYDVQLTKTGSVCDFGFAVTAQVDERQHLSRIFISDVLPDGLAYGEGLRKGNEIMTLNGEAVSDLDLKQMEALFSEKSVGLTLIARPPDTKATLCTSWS

Measured: pKd

Chain of GORASP1, Q9BQQ3 (Q9BQQ3 1-208): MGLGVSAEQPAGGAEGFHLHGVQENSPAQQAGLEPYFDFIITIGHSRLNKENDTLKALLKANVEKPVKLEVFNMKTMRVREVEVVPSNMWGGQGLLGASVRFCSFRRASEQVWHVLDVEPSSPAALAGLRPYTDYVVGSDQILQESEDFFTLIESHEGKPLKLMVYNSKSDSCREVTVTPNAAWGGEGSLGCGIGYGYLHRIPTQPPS
Chain of GRIP2_5, Q9C0E4 (Q9C0E4 544-642): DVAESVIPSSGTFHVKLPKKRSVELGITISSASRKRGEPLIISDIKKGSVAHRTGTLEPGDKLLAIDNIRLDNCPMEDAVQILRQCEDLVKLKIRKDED
Chain of PARD3_3, Q8TEW0 (Q8TEW0 582-685): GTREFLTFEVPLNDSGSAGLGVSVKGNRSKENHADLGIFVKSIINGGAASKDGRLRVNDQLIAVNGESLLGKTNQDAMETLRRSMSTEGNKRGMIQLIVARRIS
Chain of NHERF2_2, Q15599 (Q15599 142-238): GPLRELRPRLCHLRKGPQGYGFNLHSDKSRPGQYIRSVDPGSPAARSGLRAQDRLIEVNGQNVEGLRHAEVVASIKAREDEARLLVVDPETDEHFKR
Chain of HTRA2, O43464 (O43464 355-458): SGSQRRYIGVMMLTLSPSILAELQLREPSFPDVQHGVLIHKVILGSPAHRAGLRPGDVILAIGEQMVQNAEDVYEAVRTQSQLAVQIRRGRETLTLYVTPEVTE
Chain of LNX1_2, Q8TBB1 (Q8TBB1 371-470): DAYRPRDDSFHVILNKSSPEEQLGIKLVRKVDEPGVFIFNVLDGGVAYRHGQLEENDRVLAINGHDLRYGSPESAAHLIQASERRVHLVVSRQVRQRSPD
Chain of GRIP2_4, Q9C0E4 (Q9C0E4 446-548): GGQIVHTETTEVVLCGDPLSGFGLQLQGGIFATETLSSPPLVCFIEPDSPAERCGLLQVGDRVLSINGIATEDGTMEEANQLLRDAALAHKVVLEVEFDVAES
Chain of FRMPD2_3, Q68DX3 (Q68DX3 1073-1166): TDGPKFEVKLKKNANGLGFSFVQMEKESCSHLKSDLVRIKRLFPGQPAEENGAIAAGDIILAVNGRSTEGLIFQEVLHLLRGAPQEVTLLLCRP
Chain of LNX1_1, Q8TBB1 (Q8TBB1 261-371): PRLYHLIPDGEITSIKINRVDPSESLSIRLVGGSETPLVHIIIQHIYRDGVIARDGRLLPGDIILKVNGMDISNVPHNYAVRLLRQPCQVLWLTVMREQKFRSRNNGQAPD
Chain of TJP1_3, Q07157 (Q07157 416-512): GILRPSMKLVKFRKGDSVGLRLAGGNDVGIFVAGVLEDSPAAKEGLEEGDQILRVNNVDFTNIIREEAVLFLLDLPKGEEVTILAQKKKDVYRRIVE
Chain of GRIP2_6, Q9C0E4 (Q9C0E4 648-740): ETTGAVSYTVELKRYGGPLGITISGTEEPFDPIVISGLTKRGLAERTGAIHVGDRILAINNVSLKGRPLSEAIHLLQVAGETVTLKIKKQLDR
Chain of Inadl_2, Q8NI35 (Q8NI35 238-335): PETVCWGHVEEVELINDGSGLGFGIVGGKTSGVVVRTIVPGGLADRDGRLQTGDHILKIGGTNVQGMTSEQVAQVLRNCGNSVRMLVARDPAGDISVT
Chain of GRIP2_3, Q9C0E4 (Q9C0E4 238-339): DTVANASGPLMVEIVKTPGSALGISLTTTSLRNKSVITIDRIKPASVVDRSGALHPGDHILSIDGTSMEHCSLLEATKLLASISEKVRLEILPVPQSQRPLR
Chain of CASK, O14936 (O14936 487-570): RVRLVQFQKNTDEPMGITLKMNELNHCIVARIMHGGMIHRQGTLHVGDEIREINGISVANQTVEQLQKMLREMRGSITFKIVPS
Chain of FRMPD2_2, Q68DX3 (Q68DX3 944-1038): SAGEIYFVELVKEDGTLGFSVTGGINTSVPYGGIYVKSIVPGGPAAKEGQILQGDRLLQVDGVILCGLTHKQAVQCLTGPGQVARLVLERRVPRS
Chain of MAGI1_1, Q96QZ7 (Q96QZ7 1-106): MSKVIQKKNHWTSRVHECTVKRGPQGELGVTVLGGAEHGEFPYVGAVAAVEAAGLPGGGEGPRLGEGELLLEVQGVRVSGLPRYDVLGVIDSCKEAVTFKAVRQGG
Chain of LAP2, Q96RT1 (Q96RT1 other isoform, or with tags, fused parts or gaps): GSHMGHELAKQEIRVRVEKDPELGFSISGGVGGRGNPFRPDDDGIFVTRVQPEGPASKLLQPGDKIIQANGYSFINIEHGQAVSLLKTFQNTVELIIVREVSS

TACCHSETVV [TGFA, P01135]
4.05: LAP2, Q96RT1
3.67: GORASP1, Q9BQQ3
4.38: SNTG2, Q9NY99
3.87: APBA1_2, Q02410
3.56: FRMPD2_3, Q68DX3
3.78: PDZRN3_1, Q9UPQ7
3.9: LNX1_2, Q8TBB1
3.64: NHERF3_1, Q5T2W1
4.1: FRMPD2_2, Q68DX3
3.85: DLG3_3, Q92796 | PARD3_3, Q8TEW0
4.12: LNX1_1, Q8TBB1
below the threshold: all other assays above

TSSMRGMDAV [RSRC2, Q7L4I2]
3.86: APBA1_2, Q02410
below the threshold: all other assays above

TLPRKRMSSI [GPRC6A, Q5T6X5]
4.07: TIAM2, Q8IVF5
3.86: LAP2, Q96RT1
3.78: LNX1_1, Q8TBB1
below the threshold: all other assays above

QSPANIYYKV [EFNB1, P52799]
4.1: TIAM2, Q8IVF5
4.18: HTRA2, O43464
4.85: GORASP1, Q9BQQ3
4.4: GRIP2_6, Q9C0E4
3.61: LNX1_2, Q8TBB1
3.66: PARD3B_1, Q8TEW8
below the threshold: all other assays above

SAAKVLTSMC [GHRHR, Q02643]
3.49: MPDZ_10, O75970
3.94: NHERF3_1, Q5T2W1
3.86: LNX1_1, Q8TBB1
below the threshold: all other assays above
